# Values joined by “and” are separate entries in the source; they are usually repeats but may differ in a detail not shown here. Equal entries are not always repeated.
# B1: Erythrobacter litoralis HTCC2594 epoxide hydrolase rEEH2 (EEH2), SEQ ID NO: 15 (Erythrobacter litoralis HTCC2594) (protein)
# chain: MAGPSLGEWKAKAQHFAYDGLQIAFWTGGKPDARPLLLVHGYPTASWDWHRVWETLGSKYHLVAPDMIGFGLSDKPRSGYSIHRQADMHVALLDHLGIGAFDALVHDYGVSVGQELLARRAERSAAQGLGQTVFLNGGIFPDQHRPRPIQKLGTSPLGFLVGLLTNREKFGRSFSEVFGPDTQPGAQELDEFWDLVSHNGGNRIMHKLLHYIADRKEHAERWFDALRIAQGDIGLINGALDPVSGRHAYEAWRERLPDARHHLIPTVGHYPQVEDPQTVSRVTLDWLAR
# notes: soluble-EH-like alpha/beta hydrolase
# B2: Novosphingobium aromaticivorans epoxide hydrolase nEEH (Novo), SEQ ID NO: 30 (Novosphingobium aromaticivorans DSM 12444) (protein)
# chain: MNVAPFVVDIPRGEIEDLHRRIDMTRWPEKETVDDWSQGTPLGALQDFVSYWRGGYDWYACQRMLNDWGMFETEIDGVAIRFLHVRSAQADARPLLLTHGWPGSILEFRRCIAPLTRPEEHGGTAADAFHLVIPCLPGYGFSGKPTRKGWSVQKIAQAWGELMKRLGYESWLAQGGDWGSAVTTAIGALKVEGCAGIHLNMPIARPLPEDLAAPTPEELRALTALQHYQDWDSGYSKEQATRPQTVGYGLVDSPVGLAGWIYEKMWAWTDNEGAPEDALSRDDMLDNIMLYWLTAAGASSARLYWESFASFGPSQIDIPAAASAFPKEIIPAPRKWFERNCSKLVYWGELEKGGHFAAWEQPEAFVKELRAAFSLMC
# B3: sEEH: 49 kDa epoxide hydrolase purified from Sphingopyxis alaskensis, SEQ ID NO: 28 (protein, listed as Erythrobacter litoralis)
# chain: MSPAKSISLRRLLSTAISVAALGMTLQSSPSFASSAGPSTAITVSAAAAVAAPQDESIRPFHVSIPEEALTDLRRRLAETRWPDREKVSDASQGVQLDRLEPLVRYWGTDYDWRKGEARLNAVPQFITTIDGLDIQFIHIRSKHKGAMPLLMTHGWPGSPFELLKTVGPLTDPTAHGGKAEDAFDLIMPTYPGYGFSGKPNEAWDPARVARAWDVLMKRLGYKNYVSQGGDWGAIISQVLAVQAPEGLLGIHTNMPGTVPPGVLKLVRAKQPAPDSYSPEEKIAYAGLETFYGKGFGYAEMMNTRPQTLGYGLSDSPVGLAAFLYEKIATWTDSGGNPESVLTRDEILDNITLYWLTNTGTSSSRSYWDAAQGPGGPFNAIEISKVPVAVTVFPGEIYRAPRSWGEKSFKKLIYWNEVDKGGHFAAWEQPELFAAEIRAAFRPLREKK
# How the values were obtained:
# [1] = Effects of pH and temperature on the EHase activity of rEEH1, rEEH2 and rEEH3; assay type: biochemical
# Procedure: The effect of pH on the EHase activity was measured with 50 mM sodium acetate-acetic acid buffer (pH 4.0 and 6.0), 50 mM MES buffer (pH 6.0 to 7.0), 50 mM Phosphate buffer (pH 7.0 to 9.0), and 50 mM Glycine buffer (pH 9.0 and 10.0), and the optimum reaction temperature on the EHase activity was measured over a temperature of range from 10 to 70° C. at pH 7.5.
# [2] = Kinetic parameters of purified EHases by GC analysis, (S)-styrene oxide; assay type: biochemical; conditions: (S)-enantiomer of styrene oxide, Table 5
# Procedure: (§1) Kinetic parameters of the rEEH1, rEEH2, rEEH3, sEEH, nEEH, and rEEH were determined by a GC analysis using (R)- or (S)- styrene oxide substrate. 100 ul of purified EHases were mixed with various concentrations of (R)- or (S)- styrene oxide in a 10 ml tube containing 1 ml of potassium phosphate buffer (100 mM, pH 8.0), and shake-incubated at 200 rpm and a temperature of 30° C. The extraction mixtures were extracted with 2 ml of hexane, and enantiomeric excess [ee; ee=100×(S−R)/(S+R)] toward enantiopure styrene oxide was analyzed with a chiraldex gamma-cyclodextrin trifluoroacetyl(G-TA) capillary GC column. Wherein, the FIG. 8 was diagramed with GC analysis for the hydrolyzing activities of enantioselective EHases (rEEH1, rEEH2, and rEEH3) toward racemic styrene oxide.
# (§2) Kinetic parameters were estimated by non-linear regression analysis using a Sigma Plot program, and various substrates as depicted in FIG. 1 were also tested for the enantioselective hydrolyzing activity by rEEH1, rEEH2, rEEH3, sEEH, nEEH, and rEEH.
# [3] = Kinetic parameters of purified EHases by GC analysis, (R)-styrene oxide; assay type: biochemical; conditions: (R)-enantiomer of styrene oxide, Table 5
# Procedure: as §1, §2
# [4] = Enantioselective hydrolyzing activity of purified EHases toward SO; assay type: biochemical; conditions: for enantiomer preference in hydrolysis of styrene oxide, in words: purified enzyme
# Procedure: as §1, §2
# [5] = Enantioselective hydrolyzing activity of purified EHases toward GPE; assay type: biochemical
# Procedure: as §1, §2
# [6] = Enantioselective hydrolyzing activity of purified EHases toward EX; assay type: biochemical
# Procedure: as §1, §2
# [7] = Enantioselective hydrolyzing activity of purified EHases toward EB; assay type: biochemical
# Procedure: as §1, §2
# [8] = Enantioselective hydrolyzing activity of purified EHases toward ECH; assay type: biochemical
# Procedure: as §1, §2
# [9] = substrate: c1ccc([C@@H]2CO2)cc1; assay: Kinetic parameters of purified rEEH2 by GC analysis with (R)- or (S)-styrene oxide; assay type: biochemical, Erythrobacter litoralis HTCC2594; conditions: other: 100 mM potassium phosphate pH 8.0, 30° C.
# Procedure: as §1, §2
# [10] = substrate: c1ccc([C@H]2CO2)cc1; assay: as above; assay type: biochemical, Erythrobacter litoralis HTCC2594; conditions: other: 100 mM potassium phosphate pH 8.0, 30° C.
# Procedure: as §1, §2
# [11] = Optimum activity conditions of sEEH, nEEH and rEEH; assay type: biochemical
# Procedure: After cloning the genes into pET-24a (+) expression vector, the vector was introduced into BL21-CondonPlus(DE3)-RP (Novagen), and then separated by SDS-PAGE. […] Also, the optimum activities of sEEH, nEEH, and rEEH occurred at neutral pH and mesophilic conditions (30 to 40° C.).
# [12] = substrate: c1ccc([C@@H]2CO2)cc1; assay: Kinetic parameters of purified nEEH by GC analysis with (R)- or (S)-styrene oxide; assay type: biochemical, Novosphingobium aromaticivorans; conditions: other: 100 mM potassium phosphate pH 8.0, 30° C.
# Procedure: as §1, §2
# [13] = substrate: c1ccc([C@H]2CO2)cc1; assay: as above; assay type: biochemical, Novosphingobium aromaticivorans; conditions: other: 100 mM potassium phosphate pH 8.0, 30° C.
# Procedure: as §1, §2
molecule,measurement,setting,value
B1,optimum temperature (maximum hydrolysis rate),[1]; 10 to 70° C. at pH 7.5,55 °C
same,optimum pH,"[1]; activity toward styrene oxide, pH 4.0 to 10.0",7.5
same,kcat Km,[2],200 M⁻¹ s⁻¹
same,kcat Km,[3],300 M⁻¹ s⁻¹
same,Hydrolysis rate SO (R),[4]; (R)-enantiomer,0.05 (×10^−2) mg/min
same,Hydrolysis rate SO (S),[4]; (S)-enantiomer,0.06 (×10^−2) mg/min
same,"enantiomer preference in hydrolysis of styrene oxide, in words",[4],both of (S)-styrene oxide and (R)-styrene oxide were hydrolyzed at an equal rate
same,Hydrolysis rate GPE (R),[5]; (R)-enantiomer,0.06 (×10^−2) mg/min
same,Hydrolysis rate GPE (S),[5]; (S)-enantiomer,0.07 (×10^−2) mg/min
same,Hydrolysis rate EX (R),[6]; (R)-enantiomer,0.07 (×10^−2) mg/min
same,Hydrolysis rate EX (S),[6]; (S)-enantiomer,0.07 (×10^−2) mg/min
same,Hydrolysis rate EB (R),[7]; (R)-enantiomer,0.08 (×10^−2) mg/min
same,Hydrolysis rate EB (S),[7]; (S)-enantiomer,0.08 (×10^−2) mg/min
same,Hydrolysis rate ECH (R),[8]; (R)-enantiomer,0.23 (×10^−2) mg/min
same,Hydrolysis rate ECH (S),[8]; (S)-enantiomer,0.23 (×10^−2) mg/min
same,Km,[9],5.49 mM and 5.4 mM
same,Vmax,[9],0.11 µmol/min and 0.1 µmol/min
same,kcat,[9],1.6 s⁻¹
same,Km,[10],6.18 mM and 6.1 mM
same,Vmax,[10],0.12 µmol/min and 0.1 µmol/min
same,kcat,[10],1.7 s⁻¹
B2,optimum pH,[11],neutral pH
same,"enantiomer preference in hydrolysis of styrene oxide, in words",[4],not enantioselective
same,Km,[12],6 ± 0.3 mM
same,Vmax,[12],40 µmol/min/mg
same,kcat,[12],27.8 s⁻¹
same,kcat/Km,[12],4630 M⁻¹ s⁻¹
same,Km,[13],4 ± 0.3 mM
same,Vmax,[13],18.7 µmol/min/mg
same,kcat,[13],13 s⁻¹
same,kcat/Km,[13],3240 M⁻¹ s⁻¹
B3,optimum pH,[11],neutral pH
same,"enantiomer preference in hydrolysis of styrene oxide, in words",[4],not enantioselective
